From IntAct's records for PubMed 18292755

B1: Autoimmune regulator (Homo sapiens), O43918 (parent)
chain: MATDAALRRLLRLHRTEIAVAVDSAFPLLHALADHDVVPEDKFQETLHLKEKEGCPQAFHALLSWLLTQDSTAILDFWRVLFKDYNLERYGRLQPILDSFPKDVDLSQPRKGRKPPAVPKALVPPPRLPTKRKASEEARAAAPAALTPRGTASPGSQLKAKPPKKPESSAEQQRLPLGNGIQTMSASVQRAVAMSSGDVPGARGAVEGILIQQVFESGGSKKCIQVGGEFYTPSKFEDSGSGKNKARSSSGPKPLVRAKGAQGAAPGGGEARLGQQGSVPAPLALPSDPQLHQKNEDECAVCRDGGELICCDGCPRAFHLACLSPPLREIPSGTWRCSSCLQATVQEVQPRAEEPRPQEPPVETPLPPGLRSAGEEVRGPPGEPLAGMDTTLVYKHLPAPPSAAPLPGLDSSALHPLLCVGPEGQQNLAPGARCGVCGDGTDVLRCTHCAAAFHWRCHFPAGTSRPGTGLRCRSCSGDVTPAPVEGVLAPSPARLAPGPAKDDTASHEPALHRDDLESLLSEHTFDGILQWAIQSMARPAAPFPS

Variants of: B1
Details: with h31_human H3C1, P68431

Variant | effect of a mutation on the interaction
D297A | disrupting interaction

Variants of: B1
Details: with h31_human H3C1, P68431
Remark: another data set of the same source

Variant | effect of a mutation on the interaction
D297A | decreasing interaction

Variants of: B1
Details: with h31_human H3C1, P68431
Remark: another data set of the same source

Variant | effect of a mutation on the interaction
C311Y | disrupting interaction

Variants of: B1
Details: with h31_human H3C1, P68431
Remark: another data set of the same source

Variant | effect of a mutation on the interaction
V301M | decreasing interaction

Variants of: B1
Details: with h31_human H3C1, P68431
Remark: another data set of the same source

Variant | effect of a mutation on the interaction
D312A | disrupting interaction
